{"source": "paper PMC5847313", "key": {"[1]": {"target": "P (Human respiratory syncytial virus) (UniProt P03421)", "details": "cited from earlier work"}, "[2]": {"target": "P (Human respiratory syncytial virus) (UniProt P03421)", "experiment": "ITC", "details": "cited from earlier work"}, "[3]": {"target": "RSV P D95A (untagged, from pP) (human respiratory syncytial virus, strain Long) (UniProt P12579)"}, "[4]": {"target": "RSV P D110A (untagged, from pP) (human respiratory syncytial virus, strain Long) (UniProt P12579)"}}, "note": "Like-named read-outs stand apart in the source and are kept apart here."}
{"substance": "M2-1 (from UniProt P04545)", "values": [{"measurement": "Kd", "setting": "[1]", "value": 8.1, "unit": "nM"}, {"measurement": "Kd", "setting": "[2]", "value": 3000, "unit": "nM"}]}
{"substance": "RSV M2-1 expressed in BSRT7/5 cells, unphosphorylated form (from UniProt P04545 1-194) (natural protein)", "values": [{"measurement": "minigenome activity (firefly luciferase, pM/Luc) in BSRT7/5 cells", "setting": "[3]", "value": 50, "unit": "% decrease"}, {"measurement": "minigenome activity (firefly luciferase, pM/Luc) in BSRT7/5 cells", "setting": "[4]", "value": 50, "unit": "% decrease"}]}
